Experimental data: patent US20040023255

System: microtubules

For HsKip3d M1-S357 protein, which “Km for microtubule stimulation (coupled PK/LDH microtubule-stimulated ATPase assay, Michaelis-Menten fit)” value is on record?
The value was “a Km for microtubule stimulation of 0.2 µM”.
